The values below come from paper PMC5815094.

What all share (settings): ES buffer: 10 mM Tris pH 8.0, 10 mM KCl, 40 mM NaCl, 1 mM MgCl2; MST + 0.05% Tween-20, room temperature; EMSA + 25 ng tRNA per 10 ul, 37 C 15 min (Fig 6D); NMR …
In data set [1] the target is Hfq (Pseudomonas aeruginosa PAO1) (UniProt Q9HUM0). The data set can be described thus: MST.
In data set [2] the target is Hfq;Crc (Pseudomonas aeruginosa PAO1;Pseudomonas aeruginosa PAO1) (UniProt Q9HUM0+Q51380). The data set can be described thus: MST.
In data set [3] the target is Hfq (Pseudomonas aeruginosa PAO1) (UniProt Q9HUM0). Put plainly: EMSA.

Broadly, the Kd is the free concentration of one partner at which half of the binding sites on the other are occupied at equilibrium, for simple one-to-one binding. In the case of PrrF2 sRNA, the Kd came out at 0.0067 µM in data set [1] and 0.035 µM in data set [2].
Take “GGACUGGUCGCGAGGCCAGCAGGUAAGCUGAGAGACCAAGCAGUCGGACUCUUCAGAUUAUCUCCUCAUCAGGCUAAUCACGGUUUCGACCCGGCACUUUGCCGGGUCUUUUUUUG [PrrF2 sRNA]”: the binding result in data set [3] is recorded as “binds”.
